Assay [1] addresses T1, CTNI quality control recombinant protein (PK2-CTNI-1, 170120, produced by the applicant) (human, UniProt P19429 2-210, limits assumed).
T1 construct: also called cardiac troponin I
The experiment in a line: AMC sensor kinetics, antibody captured, cTnI analyte.

In assay [2] the target is T1, CTNI quality control recombinant …. Described as above. The procedure: Using the AMC sensor, the purified antibody was diluted with PBST to 10 μg/ml, and the CTNI quality control recombinant protein (PK2-CTNI-1, 170120, produced by the applicant) was serially diluted with PBST to 400 nmol/ml, 200 nmol/ml, 100 nmol/ml, 50 nmol/ml, 25 nmol/ml, 12.5 nmol/ml, 6.25 nmol/ml, and 0 nmol/ml.
The source holds these as a separate data set.

Where a chain is given by its changes, count along the chain named. Read-outs that look alike come from different tables or passages of the source.

In general, Kd refers to the free concentration of one partner at which half of the binding sites on the other are occupied at equilibrium, for simple one-to-one binding. By koff is commonly meant the rate constant with which the complex falls apart. By kon is commonly meant the rate constant with which the complex forms.

T1 sequence (P19429 2-210 limits assumed): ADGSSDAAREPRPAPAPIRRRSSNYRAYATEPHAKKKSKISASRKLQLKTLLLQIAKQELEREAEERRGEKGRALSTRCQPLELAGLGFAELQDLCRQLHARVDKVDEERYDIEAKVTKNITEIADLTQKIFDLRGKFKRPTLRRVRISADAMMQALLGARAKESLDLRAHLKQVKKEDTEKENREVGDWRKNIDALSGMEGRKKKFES

B1: WT 1-50 (antibody, V domains shown)
VH: EVQLQQSGAELVKPGASVKLSCTASGFNLKEYYMHWMKQRTEQGLDWIGRIEPEDGETRYAPEFQGKATITADTSSNTAYLQLSTLTSEDTAVYYCARYYTSYLPFVYWGQGTLVTASA
VL: DVVMTQTPLSLSVSLGDQASISCRSSQSLIYSNKHTYLHWYLQKPGQSPKLLIFQLSQRFSGVPDRFSGSGSGTDFTLKINRVEAEDLGVYFCSNSTHLPYTFGSGTKLEIKR
notes: Built as for Mutation 1
Consider B1, for which, in assay [1], the dissociation constant Kd came to 0.702 nM, the dissociation rate constant (koff) came to 0.000489 s⁻¹ and the association rate constant (kon) was 696000 M⁻¹ s⁻¹.

B2: Mutation 1-18 (antibody, V domains shown)
VH: B1 VH with L29I, E31D, Y33F, E52D, G56A, R59K, T101S, L104I
VL: B1 VL with L29I, I30L, K34R, L56I, Q58N, N95Q, Y101F
notes: built as for Mutation 1
Regarding B2, in assay [2], the dissociation constant (Kd) was determined as 0.68 nM, the koff is 0.000282 s⁻¹ and the kon was found to be 415000 M⁻¹ s⁻¹.

B3: Mutation 1-44 (antibody, V domains shown)
VH: B1 VH with L29I, E31D, Y33F, E52D, G56A, R59K, T101S
VL: B1 VL with L29I, I30L, K34R, Q58N, N95Q, Y101F
notes: built as for Mutation 1
Regarding B3, in assay [2], the dissociation constant Kd worked out at 0.865 nM, the koff came out at 0.000464 s⁻¹ and the on-rate (kon) was 537000 M⁻¹ s⁻¹.

B4: Mutation 1-4 (antibody, V domains shown)
VH: B1 VH with E31D, Y33F, E52D, G56A, R59K, T101S, L104V
VL: B1 VL with I30L, K34R, L56V, Q58N, N95Q, Y101F
notes: built as for Mutation 1
For B4, in assay [2], the Kd was determined as 0.963 nM, the off-rate (koff) was found to be 0.00023 s⁻¹ and the kon was found to be 239000 M⁻¹ s⁻¹.

B5: Mutation 1-37 (antibody, V domains shown)
VH: B1 VH with L29I, E31D, Y33F, E52D, R59K, T101S, L104V
VL: B1 VL with L29I, I30L, K34R, L56V, Q58N, N95Q
notes: built as for Mutation 1
In the case of B5, in assay [2], the dissociation constant Kd was 0.667 nM, the koff was determined as 0.000267 s⁻¹ and the kon worked out at 400000 M⁻¹ s⁻¹.

B6: Mutation 1-6 (antibody, V domains shown)
VH: B1 VH with L29I, E31D, Y33F, E52D, R59K, T101S, L104V
VL: B1 VL with L29I, I30L, K34R, L56V, Q58N, N95Q, L99I
notes: built as for Mutation 1
Take B6: in assay [2], the Kd turned out to be 0.734 nM, the koff stood at 0.000266 s⁻¹ and the association rate constant (kon) is 362000 M⁻¹ s⁻¹.

B7: Mutation 1-34 (antibody, V domains shown)
VH: B1 VH with L29I, E31D, Y33F, E52D, R59K, T101S, L104I
VL: B1 VL with I30L, K34R, L56I, Q58N, N95Q, L99I
notes: built as for Mutation 1
For the molecule B7, in assay [2], the Kd was determined as 1.41 nM, the dissociation rate constant (koff) was 0.000598 s⁻¹ and the kon worked out at 424000 M⁻¹ s⁻¹.

B8: Mutation 1-31 (antibody, V domains shown)
VH: B1 VH with L29I, E31D, E52D, G56A, R59K, T101S, L104V
VL: B1 VL with L29I, I30L, K34R, L56V, Q58N, N95Q, L99I
notes: built as for Mutation 1
Consider B8, for which, in assay [2], the equilibrium dissociation constant (Kd) stood at 0.795 nM, the koff stood at 0.000301 s⁻¹ and the kon was 378000 M⁻¹ s⁻¹.

B9: Mutation 1-52 (antibody, V domains shown)
VH: B1 VH with L29I, E31D, Y33F, E52D, G56A, T101S, L104V
VL: B1 VL with I30L, K34R, L56V, Q58N, N95Q, Y101F
notes: built as for Mutation 1
Consider B9, for which, in assay [2], the dissociation constant Kd was 0.941 nM, the koff worked out at 0.000229 s⁻¹ and the on-rate (kon) amounted to 243000 M⁻¹ s⁻¹.

B10: Mutation 1-50 (antibody, V domains shown)
VH: B1 VH with E31D, Y33F, E52D, G56A, R59K, T101S, L104I
VL: B1 VL with L29I, I30L, K34R, L56I, Q58N, N95Q, L99I, Y101F
notes: built as for Mutation 1
Consider B10, for which, in assay [2], the Kd was found to be 0.386 nM, the off-rate constant (koff) is 5.48e-05 s⁻¹ and the kon came to 142000 M⁻¹ s⁻¹.

B11: Mutation 1-14 (antibody, V domains shown)
VH: B1 VH with L29I, E31D, Y33F, E52D, G56A, R59K, T101S, L104I
VL: B1 VL with I30L, K34R, L56I, Q58N, N95Q, L99I, Y101F
notes: built as for Mutation 1
B11: in assay [2], the Kd was 0.415 nM, the koff amounted to 0.000279 s⁻¹ and the kon amounted to 673000 M⁻¹ s⁻¹.

B12: Mutation 1-38 (antibody, V domains shown)
VH: B1 VH with L29I, E31D, E52D, G56A, R59K, T101S, L104I
VL: B1 VL with K34R, L56I, Q58N, N95Q, L99I, Y101F
notes: built as for Mutation 1
Regarding B12, in assay [2], the Kd is 0.24 nM, the koff is 0.000103 s⁻¹ and the kon was 431000 M⁻¹ s⁻¹.

B13: Mutation 1-11 (antibody, V domains shown)
VH: B1 VH with L29I, E31D, E52D, G56A, R59K, T101S, L104V
VL: B1 VL with L29I, I30L, K34R, L56V, Q58N, N95Q, L99I, Y101F
notes: built as for Mutation 1
In the case of B13, in assay [2], the dissociation constant Kd came to 0.606 nM, the dissociation rate constant (koff) was 0.000443 s⁻¹ and the on-rate constant (kon) was found to be 731000 M⁻¹ s⁻¹.

B14: Mutation 1-23 (antibody, V domains shown)
VH: B1 VH with L29I, E31D, E52D, R59K, T101S, L104I
VL: B1 VL with L29I, I30L, K34R, L56I, Q58N, N95Q, L99I
notes: built as for Mutation 1
Take B14: in assay [2], the Kd was 0.968 nM, the koff was 0.000673 s⁻¹ and the kon was 695000 M⁻¹ s⁻¹.

B15: Mutation 1-24 (antibody, V domains shown)
VH: B1 VH with E31D, Y33F, E52D, G56A, T101S, L104V
VL: B1 VL with I30L, K34R, L56V, Q58N, N95Q, L99I, Y101F
notes: built as for Mutation 1
As to B15, in assay [2], the Kd amounted to 0.408 nM, the koff is 0.000259 s⁻¹ and the association rate constant (kon) came to 635000 M⁻¹ s⁻¹.

B16: Mutation 1-49 (antibody, V domains shown)
VH: B1 VH with L29I, E31D, E52D, G56A, T101S
VL: B1 VL with L29I, I30L, K34R, Q58N, N95Q, L99I
notes: built as for Mutation 1
Turning to B16, in assay [2], the dissociation constant Kd turned out to be 0.538 nM, the off-rate (koff) worked out at 0.000298 s⁻¹ and the on-rate (kon) came to 553000 M⁻¹ s⁻¹.

B17: Mutation 1-45 (antibody, V domains shown)
VH: B1 VH with L29I, E31D, E52D, R59K, T101S, L104V
VL: B1 VL with K34R, L56V, Q58N, N95Q, L99I, Y101F
notes: built as for Mutation 1
On to B17, for which, in assay [2], the dissociation constant Kd was determined as 0.168 nM, the off-rate (koff) was 3.24e-05 s⁻¹ and the kon stood at 193000 M⁻¹ s⁻¹.

B18: Mutation 1-46 (antibody, V domains shown)
VH: B1 VH with E31D, Y33F, E52D, G56A, T101S, L104I
VL: B1 VL with K34R, L56I, Q58N, N95Q, L99I, Y101F
notes: built as for Mutation 1
As for B18, in assay [2], the dissociation constant Kd was 0.723 nM, the koff came out at 0.00027 s⁻¹ and the kon was 373000 M⁻¹ s⁻¹.

B19: Mutation 1-47 (antibody, V domains shown)
VH: B1 VH with E31D, E52D, G56A, R59K, T101S, L104V
VL: B1 VL with I30L, K34R, L56V, Q58N, N95Q, Y101F
notes: built as for Mutation 1
B19: in assay [2], the dissociation constant (Kd) came out at 0.81 nM, the off-rate (koff) was found to be 0.000507 s⁻¹ and the association rate constant (kon) amounted to 626000 M⁻¹ s⁻¹.

B20: WT 1-29 (antibody, V domains shown)
VH: B1 VH with R59K, L104V
VL: B1 VL with I30L, L56V
notes: built as for Mutation 1
For B20, in assay [1], the Kd worked out at 1.23 nM, the koff stood at 0.00011 s⁻¹ and the on-rate constant (kon) came to 89600 M⁻¹ s⁻¹.

B21: WT 1-3 (antibody, V domains shown)
VH: B1 VH with L29I, R59K
VL: B1 VL with I30L, L99I
notes: built as for Mutation 1
On to B21, for which, in assay [1], the Kd was determined as 0.549 nM, the koff amounted to 0.000348 s⁻¹ and the on-rate constant (kon) was found to be 633000 M⁻¹ s⁻¹.

B22: Mutation 1-51 (antibody, V domains shown)
VH: B1 VH with E31D, E52D, T101S
VL: B1 VL with K34R, Q58N, N95Q
notes: built as for Mutation 1
Consider B22, for which, in assay [2], the Kd was determined as 0.765 nM, the koff was found to be 7.54e-05 s⁻¹ and the kon turned out to be 98600 M⁻¹ s⁻¹.

B23: Mutation 1-43 (antibody, V domains shown)
VH: B1 VH with E31D, E52D, G56A, T101S, L104V
VL: B1 VL with L29I, K34R, L56V, Q58N, N95Q, L99I
notes: built as for Mutation 1
As to B23, in assay [2], the Kd was 0.651 nM, the dissociation rate constant (koff) worked out at 7.75e-05 s⁻¹ and the on-rate (kon) is 119000 M⁻¹ s⁻¹.

B24: Mutation 1-48 (antibody, V domains shown)
VH: B1 VH with L29I, E31D, Y33F, E52D, T101S, L104I
VL: B1 VL with L29I, K34R, L56I, Q58N, N95Q
notes: built as for Mutation 1
As to B24, in assay [2], the equilibrium dissociation constant (Kd) stood at 0.956 nM, the off-rate (koff) is 0.00065 s⁻¹ and the kon was determined as 680000 M⁻¹ s⁻¹.

B25: Mutation 1-53 (antibody, V domains shown)
VH: B1 VH with L29I, E31D, E52D, G56A, R59K, T101S
VL: B1 VL with L29I, K34R, Q58N, N95Q, L99I
notes: built as for Mutation 1
For B25, in assay [2], the equilibrium dissociation constant (Kd) stood at 0.721 nM, the off-rate (koff) turned out to be 0.000243 s⁻¹ and the kon is 337000 M⁻¹ s⁻¹.

B26: WT 1-14 (antibody, V domains shown)
VH: B1 VH with L29I, Y33F, G56A, R59K, L104I
VL: B1 VL with I30L, L56I, L99I, Y101F
notes: built as for Mutation 1
As for B26, in assay [1], the dissociation constant (Kd) is 0.749 nM, the koff was 0.000398 s⁻¹ and the kon stood at 532000 M⁻¹ s⁻¹.

(Values after US20210340231A1 (FAPON BIOTECH, published 2021).)
